Laboratory results published in US20240391991A1, “MODULATION OF WNT SIGNALLING IN PULMONARY DISORDERS” (Surrozen Operating, Inc., priority 2021, published 2024).
“Also recorded” adds a separate entry of the source.

Tests used:
[1] = system: human AT2 cell organoid; test: Human AT2 cell organoid growth, CellTiter Glo assay; format: cell-based; conditions: for self-renewal and expansion of human AT2 cells: summary of organoid results; for human AT2 culture growth: RSPO alone, Wnt signaling inhibitor C59 present
Method: For ex vivo studies, 3D organoid cultures (see, e.g., Zacharias, W. et al. (2018) Nature 555:251-257 and Barkauskas et al. (2017) Development 144:986-997) were constructed by combining primary human lung fibroblasts from healthy, pulmonary fibrosis, or COPD patients with alveolar epithelial cells (AT2 and AEP cells) from patients. Organoids were cultured in SAGM medium with growth factor free Matrigel. The Wnt antagonist and agonist were added in a sequential or concurrent manner to determine the effect on the fibroblast/myofibroblast proliferation, matrix production, alveolar epithelial cell proliferation and AT1/AT2 cell fate trans-differentiation. Alveolar organoids can also be cultured directly from human distal lung cells including purified AT2 cells (Kobayashi et al., (2020) supra).
(§1) In all of the AT2 cell organoid experiments, the Wnt signaling inhibitor, C59, was used to prevent endogenous secretion of Wnt ligands. […] AT2 cell organoid growth was assessed with the CellTiter Glo assay.

[2] = system: human AT2 cell organoid; test: Human AT2 organoid size (diameter, microscopy); format: cell-based; conditions: in the absence of RSPO; for human AT2 cell organoid growth as organoid size (diameter): C59 present, FIG. 6
[3] = system: mouse AT2 organoid cultures; test: Mouse AT2 cell organoid expansion, CellTiter-Glo assay; format: cell-based; conditions: SWAP in combination with RSPO2; C59 present; FIG. 9
Method: as §1

[4] = system: acute bleomycin mouse model; test: Bleomycin-induced acute lung injury (fibrosis) mouse model; format: in vivo; conditions: agent alone, dosed four times between week 1 and week 3, vs anti-GFP
Description: The acute lung injury (single bleomycin treatment; FIG. 1) and chronic intermittent/low dose bleomycin mouse models (FIG. 2) were used to determine the therapeutic effects of Wnt antagonist and agonist (administered concurrently or sequentially or individually) in combination with or without anti-fibrotic drugs (e.g., pirfenidone and nintedanib) to assess effects on anti-fibrotic and improved respiratory functions (see, e.g., Degryse, A. et al. (2010) Am J Physiol Lung Cell Mol Physiol. 299:442-52). Improvement of fibrosis was observed upon treatment with a WNT agonist, SWAP5 (see, e.g., FIG. 7, FIG. 10). Specifically, bleomycin was administered intratracheally to the mice at day 0, and animals were treated twice weekly with an agonist approach—combination of SWAP5 (FZD1,2,5,7,8 multi-FZD-specific SWAP) and RSPO2 (combo)—for two weeks starting at day 7 until termination at day 21. […] Improvement of fibrosis was also observed upon treatment with a Wnt agonist or the Wnt signaling enhancer RSPO2 alone (FIG. 10).

Molecule | self-renewal and expansion of human AT2 cells [1] | human AT2 cell organoid growth as organoid size (diameter) [2] | expansion of mouse AT2 organoid cultures (CellTiter-Glo) [3] | human AT2 culture growth [1] | further results
SWAP2: FZD1,2,7-specific Wnt agonist; anti-FZD antibody with LRP6 binder; heavy/light chains SEQ ID NO: 5 and 6 (antibody) heavy: EVQLVESGGGLVQPGGSLRLSCAASGFTFTSYYISWVRQAPGKGLEWVAEISPYSGSTYYADSVKGRFTISADTSKNTAYLQMNSLRAEDTAVYYCALRARPPIRLHPRGSVMDYWGQGTLVTVSSGGGGSGGGGSGGGGSEVQLVESGGGLVQPGGSLRLSCAASGFNISSSYIHWVRQAPGKGLEWVAYIYSSYGSTYYADSVKGRFTISADTSKNTAYLQMNSLRAEDTAVYYCARASWYALDYWGQGTLVTVSSASTKGPSVFPLAPSSKSTSGGTAALGCLVKDYFPEPVTVSWNSGALTSGVHTFPAVLQSSGLYSLSSVVTVPSSSLGTQTYICNVNHKPSNTKVDKKVEPKSCDKTHTCPPCPAPEAAGGPSVFLFPPKPKDTLMISRTPEVTCVVVDVSHEDPEVKFNWYVDGVEVHNAKTKPREEQYNSTYRVVSVLTVLHQDWLNGKEYKCKVSNKALGAPIEKTISKAKGQPREPQVYTLPPSREEMTKNQVSLTCLVKGFYPSDIAVEWESNGQPENNYKTTPPVLDSDGSFFLYSKLTVDKSRWQQGNVFSCSVMHEALHNHYTQKSLSLSPGK light: DIQMTQSPSSLSASVGDRVTITCRASQDVSTAVAWYQQKPGKAPKLLIYSASFLYSGVPSRFSGSGSGTDFTLTISSLQPEDFATYYCQQSYTTPPTFGQGTKVEIKGGGGSGGGGSGGGGSDIQMTQSPSSLSASVGDRVTITCRASQSVSSAVAWYQQKPGKAPKLLIYSASSLYSGVPSRFSGSRSGTDFTLTISSLQPEDFATYYCQQYWYGVAPITFGQGTKVEIKRTVAAPSVFIFPPSDEQLKSGTASVVCLLNNFYPREAKVQWKVDNALQSGNSQESVTEQDSKDSTYSLSSTLTLSKADYEKHKVYACEVTHQGLSSPVTKSFNRGEC | promotes the self-renewal and expansion of human AT2 cells | expand AT2 organoids | led to the expansion of mouse AT2 organoid cultures |  | effectiveness on human AT2 organoid expansion versus Chir99021 ([1]; 10 nM concentration, in the absence of RSPO, FIG. 8): more effective than the small molecule Wnt pathway activator, Chir99021; human AT2 organoid culture outgrowth/viability (CellTiter Glo) ([1]; SWAP alone, in the absence of RSPO, C59 present, FIG. 8): induced human AT2 organoid culture outgrowth/viability as assessed by the CellTiter Glo assay in a concentration-dependent manner; also recorded: induce human AT2 cell organoid expansion alone (in the absence of RSPO) in a dose-dependent manner; numbers of organoids and organoid size by microscopy ([2]; FIG. 8): increased numbers of organoids and organoid size
SWAP4: FZD4-mono-specific Wnt agonist; anti-FZD antibody with LRP6 binder; heavy/light chains SEQ ID NO: 9 and 10 (antibody) heavy: EVQLVESGGGLVQPGGSLRLSCAASGFTFTSYYISWVRQAPGKGLEWVAEISPYSGSTYYADSVKGRFTISADTSKNTAYLQMNSLRAEDTAVYYCALRARPPIRLHPRGSVMDYWGQGTLVTVSSGGGGSGGGGSGGGGSEVQLVESGGGLVQPGGSLRLSCAASGFNISYYYIHWVRQAPGKGLEWLASIYPSSGYTYYADSVKGRFTISADTSKNTAYLQMNSLRAEDTAVYYCARSSFYWAMDYWGQGTLVTVSSASTKGPSVFPLAPSSKSTSGGTAALGCLVKDYFPEPVTVSWNSGALTSGVHTFPAVLQSSGLYSLSSVVTVPSSSLGTQTYICNVNHKPSNTKVDKKVEPKSCDKTHTCPPCPAPEAAGGPSVFLFPPKPKDTLMISRTPEVTCVVVDVSHEDPEVKFNWYVDGVEVHNAKTKPREEQYNSTYRVVSVLTVLHQDWLNGKEYKCKVSNKALGAPIEKTISKAKGQPREPQVYTLPPSREEMTKNQVSLTCLVKGFYPSDIAVEWESNGQPENNYKTTPPVLDSDGSFFLYSKLTVDKSRWQQGNVFSCSVMHEALHNHYTQKSLSLSPGK light: DIQMTQSPSSLSASVGDRVTITCRASQDVSTAVAWYQQKPGKAPKLLIYSASFLYSGVPSRFSGSGSGTDFTLTISSLQPEDFATYYCQQSYTTPPTFGQGTKVEIKGGGGSGGGGSGGGGSDIQMTQSPSSLSASVGDRVTITCRASQSVSSAVAWYQQKPGKAPKLLIYSASSLYSGVPSRFSGSRSGTDFTLTISSLQPEDFATYYCQQSYAAYLFTFGQGTKVEIKRTVAAPSVFIFPPSDEQLKSGTASVVCLLNNFYPREAKVQWKVDNALQSGNSQESVTEQDSKDSTYSLSSTLTLSKADYEKHKVYACEVTHQGLSSPVTKSFNRGEC | promotes the self-renewal and expansion of human AT2 cells | expand AT2 organoids |  |  | 
RSPO2: the Wnt signaling enhancer RSPO2 (R-spondin 2) (protein, UniProt Q6UXX9 22-243, looked up) R-spondin-2: QGNRWRRSKRASYVSNPICKGCLSCSKDNGCSRCQQKLFFFLRREGMRQYGECLHSCPSGYYGHRAPDMNRCARCRIENCDSCFSKDFCTKCKVGFYLHRGRCFDECPDGFAPLEETMECVEGCEVGHWSEWGTCSRNNRTCGFKWGLETRTRQIVKKPVKDTILCPTIAESRRCKMTMRHCPGGKRTPKAKEKRNKKKKRKLIERAQEQHSVFLATDRANQ |  |  |  | did not enhance human AT2 culture growth | percentage of lung area affected by fibrosis ([4]; FIGS. 10-11): reduced the fibrosis score and percentage of lung area affected; also recorded: reduce the area of the lung that is fibrotic; fibrosis score (Modified Ashcroft) ([4]; FIGS. 10-12): reduced the fibrosis score; also recorded: lower the severity of fibrosis
RSPO1: R-spondin 1, of a family of ligands that amplify Wnt signals (protein, UniProt Q2MKA7 21-263, looked up) R-spondin-1: SRGIKGKRQRRISAEGSQACAKGCELCSEVNGCLKCSPKLFILLERNDIRQVGVCLPSCPPGYFDARNPDMNKCIKCKIEHCEACFSHNFCTKCKEGLYLHKGRCYPACPEGSSAANGTMECSSPAQCEMSEWSPWGPCSKKQQLCGFRRGSEERTRRVLHAPVGDHAACSDTKETRRCTVRRVPCPEGQKRRKGGQGRRENANRNLARKESKEAGAGSRRRKGQQQQQQQGTVGPLTSAGPA |  |  |  | did not enhance human AT2 culture growth | 
SWAP1: FZD-1,2,5,7,8-specific Wnt agonist; anti-FZD antibody with LRP6 binder; heavy/light chains SEQ ID NO: 3 and 4 (antibody) heavy: EVQLVESGGGLVQPGGSLRLSCAASGFTFTSYYISWVRQAPGKGLEWVAEISPYSGSTYYADSVKGRFTISADTSKNTAYLQMNSLRAEDTAVYYCALRARPPIRLHPRGSVMDYWGQGTLVTVSSGGGGSGGGGSGGGGSEVQLVESGGGLVQPGGSLRLSCAASGFTFSHYTLSWVRQAPGKGLEWVSVISGDGSYTYYADSVKGRFTISSDNSKNTLYLQMNSLRAEDTAVYYCARNFIKYVFANWGQGTLVTVSSASTKGPSVFPLAPSSKSTSGGTAALGCLVKDYFPEPVTVSWNSGALTSGVHTFPAVLQSSGLYSLSSVVTVPSSSLGTQTYICNVNHKPSNTKVDKKVEPKSCDKTHTCPPCPAPEAAGGPSVFLFPPKPKDTLMISRTPEVTCVVVDVSHEDPEVKFNWYVDGVEVHNAKTKPREEQYNSTYRVVSVLTVLHQDWLNGKEYKCKVSNKALGAPIEKTISKAKGQPREPQVYTLPPSREEMTKNQVSLTCLVKGFYPSDIAVEWESNGQPENNYKTTPPVLDSDGSFFLYSKLTVDKSRWQQGNVFSCSVMHEALHNHYTQKSLSLSPGK light: DIQMTQSPSSLSASVGDRVTITCRASQDVSTAVAWYQQKPGKAPKLLIYSASFLYSGVPSRFSGSGSGTDFTLTISSLQPEDFATYYCQQSYTTPPTFGQGTKVEIKGGGGSGGGGSGGGGSDIELTQPPSVSVAPGQTARISCSGDNIGSFYVHWYQQKPGQAPVLVIYDKSNRPSGIPERFSGSNSGNTATLTISGTQAEDEADYYCQSYANTLSLVFGGGTKLTVLGQPKAAPSVTLFPPSSEELQANKATLVCLISDFYPGAVTVAWKADSSPVKAGVETTTPSKQSNNKYAASSYLSLTPEQWKSHRSYSCQVTHEGSTVEKTVAPTECS | promotes the self-renewal and expansion of human AT2 cells |  | led to the expansion of mouse AT2 organoid cultures |  | human AT2 cell organoid growth (CellTiter Glo), compared with Chir99021 ([1]; SWAP in combination with RSPO1, C59 present, FIGS. 5A and 5B): enhancement of human AT2 cell organoid growth that surpassed the growth observed upon treatment with the small molecule Wnt signaling activator, Chir99021; also recorded: more effective than the small molecule, CHIR99021
